Patent US8980543B2, “Method of measuring enzyme activity by multi-dimensional nuclear magnetic resonance” (Canon Kabushiki Kaisha, priority 2007, dated 2015)

Molecular target: T1, MMP2 (Homo sapiens, UniProt P08253)
T1 construct: purchased R&D systems Inc
T1 sequence (P08253 110-660): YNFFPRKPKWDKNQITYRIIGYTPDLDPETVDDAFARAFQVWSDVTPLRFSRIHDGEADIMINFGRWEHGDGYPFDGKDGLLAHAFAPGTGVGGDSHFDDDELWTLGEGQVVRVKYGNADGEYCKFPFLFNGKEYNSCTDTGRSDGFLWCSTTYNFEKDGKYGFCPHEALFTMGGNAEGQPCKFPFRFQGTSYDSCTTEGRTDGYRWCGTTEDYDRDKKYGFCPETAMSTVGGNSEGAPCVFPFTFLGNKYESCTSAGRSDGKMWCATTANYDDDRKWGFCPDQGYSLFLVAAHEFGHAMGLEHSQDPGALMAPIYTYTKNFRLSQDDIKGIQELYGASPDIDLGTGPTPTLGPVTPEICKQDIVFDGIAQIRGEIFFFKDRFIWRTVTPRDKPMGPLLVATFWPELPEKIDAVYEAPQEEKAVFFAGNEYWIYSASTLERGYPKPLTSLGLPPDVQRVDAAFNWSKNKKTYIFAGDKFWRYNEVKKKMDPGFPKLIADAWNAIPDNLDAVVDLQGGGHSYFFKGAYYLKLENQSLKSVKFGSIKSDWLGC
Assay: Reaction between MMP2 and substrate peptide-probe, cleavage monitored by HPLC and MALDI-TOF-MS
Type: biochemical
Conditions: 1 mM peptide, MMP2 1 μg, TCNB buffer pH 7.5, room temperature (25° C.), 18 hours; fragments GPLG and VRGK
Experimental: A TCNB buffer (50 mM Tris, 10 mM CaCl2, 150 mM NaCl, 0.05% Brij 35, pH 7.5) was used as a buffer for an enzymatic reaction. A MMP2 precursor (R&D systems Inc.) was activated in 1 mM 4-aminophenylmercury acetate (APMA, manufactured by Sigma) in accordance with the protocol attached to the product to obtain activated MMP2 (hereinafter, simply referred to as MMP2). MMP2 (1 μg) was dissolved in 0.9 mL of the reaction buffer. To this solution, 780 μg of the substrate peptide synthesized above was added to obtain a solution containing a peptide in a concentration of 1 mM. The resultant solution was incubated at 25° C. for 18 hours.
The peptide was cleaved by an enzyme, MMP2. The peptide solution before and after the reaction with the enzyme was monitored by HPLC analysis (A=H2O/0.1% TFA and C═CH3CN/0.1% TFA; initial 5 minutes: 0% C, 5 to 35 minutes: 0 to 30% C, using an YMC HPLC column, YMC-Pack ODS-A (AAl2S05-2546WT) manufactured by YMC and having a length of 250 mm and an inner diameter of 4.6 mm; a particle diameter of 5 μm, a pore diameter of 12 nm, a flow amount of 0.8 mL/minute; and detection was made at UV of 220 nm). HPLC elution profiles of the peptide solution (MMP−) before treated with the enzyme and the peptide solution (MMP+) after treated with the enzyme are illustrated in FIG. 5.
The peak was separated and subjected to MALDI-TOF-MS analysis. […]

- cleavage of the isotope-labeled peptide by MMP2: completely cleaved
Sequence: GPLGVRGK
